# Laboratory results reported in the supplement of paper PMC5998384.
# How the values were obtained:
# HeLa Kyoto [1] = experiment: melting temperature (median over replicates), in situ; higher = more thermally stable
# HeLa Kyoto [2] = experiment: solubility in G1/S (NP-40 vs SDS abundance) (log2 ratio); higher = more soluble; conditions: cell cycle stage: G1/S
# HeLa Kyoto [3] = experiment: thermal stability score vs G1/S (z-score of summed log2 fold changes over temperatures); higher = more thermally stable than in G1/S
# HeLa Kyoto [4] = experiment: solubility change mitosis vs G1/S (difference of NP-40 vs SDS log2 ratios) (log2 ratio difference); higher = more soluble in mitosis
# [5] = cell cycle stage: early G1 (4.5 h after nocodazole release)
# 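Throughout, for melting temperature (median over replicates), in situ: HeLa Kyoto cells synchronized by double thymidine or nocodazole block, proteins quantified by TMT10plex mass spectrometry, three independent biological replicates.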
# 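Throughout, for solubility change mitosis vs G1/S (difference of NP-40 vs SDS log2 ratios): synchronized HeLa Kyoto cells (double thymidine block for G1/S, nocodazole release for mitosis), protein amounts in NP-40 versus SDS lysates quantified by mass spectrometry, three biological replicates.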
# 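Throughout, for solubility in G1/S (NP-40 vs SDS abundance): HeLa Kyoto cells arrested at G1/S by double thymidine block, proteins quantified by TMT10plex mass spectrometry in mild NP-40 versus SDS extracts, three biological replicates.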
# 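Throughout, for thermal stability score vs G1/S (z-score of summed log2 fold changes over temperatures): synchronized HeLa Kyoto cells, proteins quantified by TMT10plex mass spectrometry, three biological replicates, mitosis taken 0.5 h after nocodazole release, G1/S directly after double thymidine block.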
Sequence,melting temperature (HeLa Kyoto [1]; cell cycle stage: G1/S),melting temperature (HeLa Kyoto [1]; cell cycle stage: mitosis),solubility in G1/S (log2) (HeLa Kyoto [2]),thermal stability score (HeLa Kyoto [3]; [5]),thermal stability score (HeLa Kyoto [3]; cell cycle stage: mitosis),solubility change mitosis (log2) (HeLa Kyoto [4])
MKCVFVTVGTTSFDDLIACVSAPDSLQKIESLGYNRLILQIGRGTVVPEPFSTESFTLDVYRYKDSLKEDIQKADLVISHAGAGSCLETLEKGKPLVVVINEKLMNNHQLELAKQLHKEGHLFYCTCRVLTCPGQAKSIASAPGKCQDSAALTSTAFSGLDFGLLSGYLHKQALVTATHPTCTLLFPSCHAFFPLPLTPTLYKMHKGWKNYCSQKSLNEASMDEYLGSLGLFRKLTAKDASCLFRAISEQLFCSQVHHLEIRKACVSYMRENQQTFESYVEGSFEKYLERLGDPKESAGQLEIRALSLIYNRDFILYRFPGKPPTYVTDNGYEDKILLCYSSSGHYDSVYSKQFQSSAAVCQAVLYEILYKDVFVVDEEELKTAIKLFRSGSKKNRNNAVTGSEDAHTDYKSSNQNRMEEWGACYNAENIPEGYNKGTEETKSPENPSKMPFPYKVLKALDPEIYRNVEFDVWLDSRKELQKSDYMEYAGRQYYLGDKCQVCLESEGRYYNAHIQEVGNENNSVTVFIEELAEKHVVPLANLKPVTQVMSVPAWNAMPSRKGRGYQKMPGGYVPEIVISEMDIKQQKKMFKKIRGKEVYMTMAYGKGDPLLPPRLQHSMHYGHDPPMHYSQTAGNVMSNEHFHPQHPSPRQGRGYGMPRNSSRFINRHNMPGPKVDFYPGPGKRCCQSYDNFSYRSRSFRRSHRQMSCVNKESQYGFTPGNGQMPRGLEETITFYEVEEGDETAYPTLPNHGGPSTMVPATSGYCVGRRGHSSGKQTLNLEEGNGQSENGRYHEEYLYRAEPDYETSGVYSTTASTANLSLQDRKSCSMSPQDTVTSYNYPQKMMGNIAAVAASCANNVPAPVLSNGAAANQAISTTSVSSQNAIQPLFVSPPTHGRPVIASPSYPCHSAIPHAGASLPPPPPPPPPPPPPPPPPPPPPPPPPPPALDVGETSNLQPPPPLPPPPYSCDPSGSDLPQDTKVLQYYFNLGLQCYYHSYWHSMVYVPQMQQQLHVENYPVYTEPPLVDQTVPQCYSEVRREDGIQAEASANDTFPNADSSSVPHGAVYYPVMSDPYGQPPLPGFDSCLPVVPDYSCVPPWHPVGTAYGGSSQIHGAINPGPIGCIAPSPPASHYVPQGM [ALG13],53.4 °C,52.2 °C,0.392,2.01,-0.34,0.0555
MKDVPGFLQQSQNSGPGQPAVWHRLEELYTKKLWHQLTLQVLDFVQDPCFAQGDGLIKLYENFISEFEHRVNPLSLVEIILHVVRQMTDPNVALTFLEKTREKVKSSDEAVILCKTAIGALKLNIGDLQVTKETIEDVEEMLNNLPGVTSVHSRFYDLSSKYYQTIGNHASYYKDALRFLGCVDIKDLPVSEQQERAFTLGLAGLLGEGVFNFGELLMHPVLESLRNTDRQWLIDTLYAFNSGNVERFQTLKTAWGQQPDLAANEAQLLRKIQLLCLMEMTFTRPANHRQLTFEEIAKSAKITVNEVELLVMKALSVGLVKGSIDEVDKRVHMTWVQPRVLDLQQIKGMKDRLEFWCTDVKSMEMLVEHQAHDILT [PSMD13],53.2 °C,51.3 °C,0.0175,1.44,2.56,-0.181
MKEEKEHRPKEKRVTLLTPAGATGSGGGTSGDSSKGEDKQDRNKEKKEALSKVVIRRLPPTLTKEQLQEHLQPMPEHDYFEFFSNDTSLYPHMYARAYINFKNQEDIILFRDRFDGYVFLDNKGQEYPAIVEFAPFQKAAKKKTKKRDTKVGTIDDDPEYRKFLESYATDNEKMTSTPETLLEEIEAKNRELIAKKTTPLLSFLKNKQRMREEKREERRRREIERKRQREEERRKWKEEEKRKRKDIEKLKKIDRIPERDKLKDEPKIKVHRFLLQAVNQKNLLKKPEKGDEKELDKREKAKKLDKENLSDERASGQSCTLPKRSDSELKDEKPKRPEDESGRDYREREREYERDQERILRERERLKRQEEERRRQKERYEKEKTFKRKEEEMKKEKDTLRDKGKKAESTESIGSSEKTEKKEEVVKRDRIRNKDRPAMQLYQPGARSRNRLCPPDDSTKSGDSAAERKQESGISHRKEGGEE [UPF3B],50.6 °C,50.5 °C,-0.279,0.0687,-0.398,0.245
